Values of other authors in publication PMC10280637.
pKd: −log10 of the molar value.

Target: IL-17A (Homo sapiens) (UniProt Q16552)
Sequence (Q16552 24-155): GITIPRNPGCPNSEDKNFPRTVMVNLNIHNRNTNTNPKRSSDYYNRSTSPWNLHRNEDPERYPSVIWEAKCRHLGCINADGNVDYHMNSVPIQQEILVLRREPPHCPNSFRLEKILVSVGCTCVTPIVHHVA

pKd: 10.22
Substance: Secukinumab
